B1: Chryseobacterium sp-62563 propeptide T88F (protein)
chain: NQDPNLVAKESNETAMKDFGKTVPVGIEKEDGKFKISFMVTAQPYEIKDSKENAAYISMIKTAVENETPIHVFLKANTNEIAKVDKAFDDDIRYFKSVFTKEVKEENRK
B2: Chryseobacterium sp-62563 propeptide M39Y (protein)
chain: NQDPNLVAKESNETAMKDFGKTVPVGIEKEDGKFKISFYVTAQPYEIKDSKENAAYISMIKTAVENETPIHVFLKANTNEIAKVDKATDDDIRYFKSVFTKEVKEENRK
B3: Chryseobacterium sp-62563 propeptide E67K (protein)
chain: NQDPNLVAKESNETAMKDFGKTVPVGIEKEDGKFKISFMVTAQPYEIKDSKENAAYISMIKTAVENKTPIHVFLKANTNEIAKVDKATDDDIRYFKSVFTKEVKEENRK
B4: Chryseobacterium sp-62563 propeptide E67D (protein)
chain: NQDPNLVAKESNETAMKDFGKTVPVGIEKEDGKFKISFMVTAQPYEIKDSKENAAYISMIKTAVENDTPIHVFLKANTNEIAKVDKATDDDIRYFKSVFTKEVKEENRK
B5: Chryseobacterium sp-62563 propeptide Y56P (protein)
chain: NQDPNLVAKESNETAMKDFGKTVPVGIEKEDGKFKISFMVTAQPYEIKDSKENAAPISMIKTAVENETPIHVFLKANTNEIAKVDKATDDDIRYFKSVFTKEVKEENRK
B6: Chryseobacterium sp-62563 propeptide Y45L (protein)
chain: NQDPNLVAKESNETAMKDFGKTVPVGIEKEDGKFKISFMVTAQPLEIKDSKENAAYISMIKTAVENETPIHVFLKANTNEIAKVDKATDDDIRYFKSVFTKEVKEENRK
B7: Chryseobacterium sp-62563 propeptide E67C (protein)
chain: NQDPNLVAKESNETAMKDFGKTVPVGIEKEDGKFKISFMVTAQPYEIKDSKENAAYISMIKTAVENCTPIHVFLKANTNEIAKVDKATDDDIRYFKSVFTKEVKEENRK
B8: Chryseobacterium sp-62563 propeptide M39Q (protein)
chain: NQDPNLVAKESNETAMKDFGKTVPVGIEKEDGKFKISFQVTAQPYEIKDSKENAAYISMIKTAVENETPIHVFLKANTNEIAKVDKATDDDIRYFKSVFTKEVKEENRK
B9: Chryseobacterium sp-62563 propeptide M39N (protein)
chain: NQDPNLVAKESNETAMKDFGKTVPVGIEKEDGKFKISFNVTAQPYEIKDSKENAAYISMIKTAVENETPIHVFLKANTNEIAKVDKATDDDIRYFKSVFTKEVKEENRK
B10: Chryseobacterium sp-62563 propeptide E67M (protein)
chain: NQDPNLVAKESNETAMKDFGKTVPVGIEKEDGKFKISFMVTAQPYEIKDSKENAAYISMIKTAVENMTPIHVFLKANTNEIAKVDKATDDDIRYFKSVFTKEVKEENRK
B11: Chryseobacterium sp-62563 propeptide E67H (protein)
chain: NQDPNLVAKESNETAMKDFGKTVPVGIEKEDGKFKISFMVTAQPYEIKDSKENAAYISMIKTAVENHTPIHVFLKANTNEIAKVDKATDDDIRYFKSVFTKEVKEENRK
B12: Chryseobacterium sp-62563 propeptide M39E (protein)
chain: NQDPNLVAKESNETAMKDFGKTVPVGIEKEDGKFKISFEVTAQPYEIKDSKENAAYISMIKTAVENETPIHVFLKANTNEIAKVDKATDDDIRYFKSVFTKEVKEENRK
B13: Chryseobacterium sp-62563 propeptide F38G (protein)
chain: NQDPNLVAKESNETAMKDFGKTVPVGIEKEDGKFKISGMVTAQPYEIKDSKENAAYISMIKTAVENETPIHVFLKANTNEIAKVDKATDDDIRYFKSVFTKEVKEENRK
B14: Chryseobacterium sp-62563 propeptide E67G (protein)
chain: NQDPNLVAKESNETAMKDFGKTVPVGIEKEDGKFKISFMVTAQPYEIKDSKENAAYISMIKTAVENGTPIHVFLKANTNEIAKVDKATDDDIRYFKSVFTKEVKEENRK
B15: Chryseobacterium sp-62563 propeptide M39W (protein)
chain: NQDPNLVAKESNETAMKDFGKTVPVGIEKEDGKFKISFWVTAQPYEIKDSKENAAYISMIKTAVENETPIHVFLKANTNEIAKVDKATDDDIRYFKSVFTKEVKEENRK
B16: Chryseobacterium sp-62563 propeptide E67V (protein)
chain: NQDPNLVAKESNETAMKDFGKTVPVGIEKEDGKFKISFMVTAQPYEIKDSKENAAYISMIKTAVENVTPIHVFLKANTNEIAKVDKATDDDIRYFKSVFTKEVKEENRK
B17: Chryseobacterium sp-62563 propeptide M39G (protein)
chain: NQDPNLVAKESNETAMKDFGKTVPVGIEKEDGKFKISFGVTAQPYEIKDSKENAAYISMIKTAVENETPIHVFLKANTNEIAKVDKATDDDIRYFKSVFTKEVKEENRK
B18: Chryseobacterium sp-62563 propeptide M39F (protein)
chain: NQDPNLVAKESNETAMKDFGKTVPVGIEKEDGKFKISFFVTAQPYEIKDSKENAAYISMIKTAVENETPIHVFLKANTNEIAKVDKATDDDIRYFKSVFTKEVKEENRK
B19: Chryseobacterium sp-62563 propeptide M39S (protein)
chain: NQDPNLVAKESNETAMKDFGKTVPVGIEKEDGKFKISFSVTAQPYEIKDSKENAAYISMIKTAVENETPIHVFLKANTNEIAKVDKATDDDIRYFKSVFTKEVKEENRK
B20: Chryseobacterium sp-62563 propeptide E30W (protein)
chain: NQDPNLVAKESNETAMKDFGKTVPVGIEKWDGKFKISFMVTAQPYEIKDSKENAAYISMIKTAVENETPIHVFLKANTNEIAKVDKATDDDIRYFKSVFTKEVKEENRK
B21: Chryseobacterium sp-62563 propeptide E67A (protein)
chain: NQDPNLVAKESNETAMKDFGKTVPVGIEKEDGKFKISFMVTAQPYEIKDSKENAAYISMIKTAVENATPIHVFLKANTNEIAKVDKATDDDIRYFKSVFTKEVKEENRK
B22: Chryseobacterium sp-62563 propeptide E67R (protein)
chain: NQDPNLVAKESNETAMKDFGKTVPVGIEKEDGKFKISFMVTAQPYEIKDSKENAAYISMIKTAVENRTPIHVFLKANTNEIAKVDKATDDDIRYFKSVFTKEVKEENRK
B23: Chryseobacterium sp-62563 propeptide M39H (protein)
chain: NQDPNLVAKESNETAMKDFGKTVPVGIEKEDGKFKISFHVTAQPYEIKDSKENAAYISMIKTAVENETPIHVFLKANTNEIAKVDKATDDDIRYFKSVFTKEVKEENRK
B24: Chryseobacterium sp-62563 propeptide E67T (protein)
chain: NQDPNLVAKESNETAMKDFGKTVPVGIEKEDGKFKISFMVTAQPYEIKDSKENAAYISMIKTAVENTTPIHVFLKANTNEIAKVDKATDDDIRYFKSVFTKEVKEENRK
B25: Chryseobacterium sp-62563 propeptide S58P (protein)
chain: NQDPNLVAKESNETAMKDFGKTVPVGIEKEDGKFKISFMVTAQPYEIKDSKENAAYIPMIKTAVENETPIHVFLKANTNEIAKVDKATDDDIRYFKSVFTKEVKEENRK
B26: Chryseobacterium sp-62563 propeptide E67L (protein)
chain: NQDPNLVAKESNETAMKDFGKTVPVGIEKEDGKFKISFMVTAQPYEIKDSKENAAYISMIKTAVENLTPIHVFLKANTNEIAKVDKATDDDIRYFKSVFTKEVKEENRK
B27: Chryseobacterium sp-62563 propeptide E67F (protein)
chain: NQDPNLVAKESNETAMKDFGKTVPVGIEKEDGKFKISFMVTAQPYEIKDSKENAAYISMIKTAVENFTPIHVFLKANTNEIAKVDKATDDDIRYFKSVFTKEVKEENRK
B28: Chryseobacterium sp-62563 propeptide E67W (protein)
chain: NQDPNLVAKESNETAMKDFGKTVPVGIEKEDGKFKISFMVTAQPYEIKDSKENAAYISMIKTAVENWTPIHVFLKANTNEIAKVDKATDDDIRYFKSVFTKEVKEENRK
B29: Chryseobacterium sp-62563 propeptide F73E (protein)
chain: NQDPNLVAKESNETAMKDFGKTVPVGIEKEDGKFKISFMVTAQPYEIKDSKENAAYISMIKTAVENETPIHVELKANTNEIAKVDKATDDDIRYFKSVFTKEVKEENRK
B30: Chryseobacterium sp-62563 propeptide E67S (protein)
chain: NQDPNLVAKESNETAMKDFGKTVPVGIEKEDGKFKISFMVTAQPYEIKDSKENAAYISMIKTAVENSTPIHVFLKANTNEIAKVDKATDDDIRYFKSVFTKEVKEENRK
B31: Chryseobacterium sp-62563 propeptide F38D (protein)
chain: NQDPNLVAKESNETAMKDFGKTVPVGIEKEDGKFKISDMVTAQPYEIKDSKENAAYISMIKTAVENETPIHVFLKANTNEIAKVDKATDDDIRYFKSVFTKEVKEENRK
B32: Chryseobacterium sp-62563 propeptide E65P (protein)
chain: NQDPNLVAKESNETAMKDFGKTVPVGIEKEDGKFKISFMVTAQPYEIKDSKENAAYISMIKTAVPNETPIHVFLKANTNEIAKVDKATDDDIRYFKSVFTKEVKEENRK
B33: Chryseobacterium sp-62563 propeptide E67I (protein)
chain: NQDPNLVAKESNETAMKDFGKTVPVGIEKEDGKFKISFMVTAQPYEIKDSKENAAYISMIKTAVENITPIHVFLKANTNEIAKVDKATDDDIRYFKSVFTKEVKEENRK

Each binder was assayed against T1, Chryseobacterium sp-62563 deamidase polypeptide (second polypeptide, deamidase domain), wildtype (Chryseobacterium sp-62563) (assay: cell-based or functional assay).
T1 sequence: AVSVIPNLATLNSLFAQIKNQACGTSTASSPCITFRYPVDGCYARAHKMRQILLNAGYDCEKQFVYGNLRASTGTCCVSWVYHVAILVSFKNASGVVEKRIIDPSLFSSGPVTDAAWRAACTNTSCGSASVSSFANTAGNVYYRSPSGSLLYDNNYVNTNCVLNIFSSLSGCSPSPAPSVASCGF

Compared with B1, B2 is higher in Relative activity of maturated deamidase (% initial rate): 28 for the first, > 100 for the second.

First: B3
Second: B4
The Relative activity of maturated deamidase (% initial rate) of the first is higher: > 100 for the first, 69 for the second.

First: B5
Second: B6
The Relative activity of maturated deamidase (% initial rate) of the first is lower: 32 for the first, 65 for the second.

First: B7
Second: B8
The Relative activity of maturated deamidase (% initial rate) of the first is lower: 46 for the first, > 100 for the second.

Going from B9 to B10, the Relative activity of maturated deamidase (% initial rate) falls from 39 to 37.

First: B11
Second: B12
The Relative activity of maturated deamidase (% initial rate) of the first is lower: 78 for the first, 95 for the second.

Going from B13 to B14, the Relative activity of maturated deamidase (% initial rate) falls from > 100 to 54.

Compared with B15, B16 is lower in Relative activity of maturated deamidase (% initial rate): 44 for the first, 27 for the second.

Going from B17 to B18, the Relative activity of maturated deamidase (% initial rate) falls from > 100 to 45.

First: B19
Second: B20
The Relative activity of maturated deamidase (% initial rate) of the first is higher: > 100 for the first, 27 for the second.

Going from B21 to B22, the Relative activity of maturated deamidase (% initial rate) rises from 46 to 95.

Going from B23 to B24, the Relative activity of maturated deamidase (% initial rate) falls from > 100 to 40.

Going from B25 to B26, the Relative activity of maturated deamidase (% initial rate) rises from 42 to 55.

Compared with B27, B28 is higher in Relative activity of maturated deamidase (% initial rate): 46 for the first, > 100 for the second.

Compared with B29, B30 is higher in Relative activity of maturated deamidase (% initial rate): 28 for the first, 42 for the second.

Compared with B31, B32 is lower in Relative activity of maturated deamidase (% initial rate): > 100 for the first, 30 for the second.

B33 showed a Relative activity of maturated deamidase (% initial rate) of 31.
